The target of assay [1] is T1, PDZ domain of human Dishevelled 3 (DVL3), aa 243-338, wild type (human, UniProt Q92997 243-338).
T1 construct: PDZ domain of human Dishevelled 3 (DVL3), residues 243-338; Cloned in pETM11; also called PDZ wt; hDvl3 PDZ WT domain; source: E. coli BL21(DE3), minimal media (15N or 15N,13C labelling), purified (Ni-NTA, TEV, Q-sepharose, SEC); not shown: His6, N-terminal, cleaved
T1 sequence (looked up): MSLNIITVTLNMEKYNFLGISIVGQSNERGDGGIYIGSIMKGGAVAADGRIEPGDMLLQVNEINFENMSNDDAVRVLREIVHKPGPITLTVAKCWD
Briefly: NMR titration; 1H-15N HSQC of 100 uM 15N-labelled PDZ wt/mutant with increasing amounts of C-terminal peptide (stock 800 uM, up to four-fold over PDZ); 50 mM sodium-phosphate pH 6.5, 50 mM KCl. To be noted: both partners purified.

The target in assay [2] is T2, PDZ domain of human Dishevelled 3 (DVL3), aa 243-338, S280E (human, UniProt Q92997 243-338, S280E).
T2 construct: PDZ domain of human Dishevelled 3 (DVL3), residues 243-338, phosphomimetic mutant S280E; Made by site-directed mutagenesis of pETM11-PDZ; also called PDZ S280E; source: E. coli BL21(DE3), minimal media (15N or 15N,13C labelling), purified (Ni-NTA, TEV, Q-sepharose, SEC); not shown: His6, N-terminal, cleaved
T2 sequence (looked up): T1 sequence (looked up) with S38E
The assay is described as above. Particulars: both partners purified.

The source of these data is article PMC7810883, “Phosphorylation-induced changes in the PDZ domain of Dishevelled 3” (Scientific Reports, 2021).

Substitutions are numbered along the chain they refer to. Non-standard residues stand in square brackets, D forms with d. pS = N[C@@H](COP(=O)(O)O)C(=O)O

B1: C-terminal DVL peptide consisting of aa 698-716 from DVL3 with phosphorylated pS700 (peptide, UniProt Q92997 698-716, looked up)
peptide: H-RQ[pS]FRMAMGNPSEFFVDVM-OH
notes: C-terminus of human Dishevelled 3 (DVL3), residues 698-716; The phosphorylation at S700 is told only in the methods; also called C-terminal peptide (698-716); C-terminus ligand
Consider B1, for which the binding result in assay [1] and in assay [2] was “binds” in each case.
